± gives the standard deviation of the averaged measurements.
Columns and labels:
[1] = test system: Saccharomyces cerevisiae; test: protein stability index of tFT-peptide fusion (C-terminal peptide) (PSI (0-1 scale)); higher = more stable (slower turnover); conditions: genetic background: wild type; temperature: 30 C
[2] = test system: Saccharomyces cerevisiae; test: as above
Procedure: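 MPS profiling in S. cerevisiae of the tFT-X12 degron library: putative degron peptides plus stable controls, 12 aa, fused to the C-terminus of a sfGFP-mCherry timer. Cells are FACS-sorted into 8 mCherry/sfGFP bins and deep-sequenced. PSI runs from 0 (unstable) to 1 (stable). Backgrounds are wild type, das1Δ and doa10Δ at 30 °C, and wild type, das1Δ, cdc34-1 and cdc53-1 at 37 °C; 2-3 technical replicates each.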

[3] = genetic background: cdc34-1, temperature: 37 C
[4] = genetic background: cdc53-1, temperature: 37 C
[5] = genetic background: das1 deletion, temperature: 30 C
[6] = genetic background: das1 deletion, temperature: 37 C
[7] = genetic background: doa10 deletion, temperature: 30 C
[8] = genetic background: wild type, temperature: 30 C
[9] = genetic background: wild type, temperature: 37 C
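Further: PSI is a weighted mean of sequencing reads over stability bins, variants kept only with over 10 reads, mCherry proximal and sfGFP distal, peptide attached via GGGS linker.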

Sequence	protein stability index [1]	protein stability index [2, 3]	protein stability index [2, 4]	protein stability index [2, 5]	protein stability index [2, 6]	protein stability index [2, 7]	protein stability index [2, 8]	protein stability index [2, 9]
PLLPTPLTAPPP	0.385 ± 0.0092	0.6705 ± 0.0022	0.73469 ± 0.00013	0.642 ± 0.031	0.7031 ± 0.006	0.659 ± 0.018	0.671 ± 0.023	0.6941 ± 0.0038
PLLSATLTRRLA	0.475 ± 0.024	0.622 ± 0.041	0.665 ± 0.0088	0.684 ± 0.0075	0.692 ± 0.0072	0.162 ± 0.015	0.19 ± 0.03	0.386 ± 0.0044
PLTSPLLFPVFA	0.376 ± 0.015	0.272 ± 0.044	0.338 ± 0.029	0.269 ± 0.024	0.376 ± 0.0081	0.219 ± 0.011	0.267 ± 0.017	0.381 ± 0.033
PPPLPFPTPPPS	0.433 ± 0.038	0.689 ± 0.0093	0.764 ± 0.041	0.644 ± 0.044	0.702 ± 0.0074	0.634 ± 0.025	0.646 ± 0.032	0.6663 ± 0.0036
PPSLPPLISFSP	0.729 ± 0.03	0.7 ± 0.039	0.7808 ± 0.0052	0.656 ± 0.015	0.7661 ± 0.0014	0.669 ± 0.011	0.6624 ± 0.0039	0.7407 ± 0.0059
PPSRSPLPPLLH	0.723 ± 0.027	0.657 ± 0.04	0.729 ± 0.024	0.687 ± 0.041	0.707 ± 0.017	0.6917 ± 0.0047	0.686 ± 0.027	0.694 ± 0.031
PPTPYPRFIFSF	0.459 ± 0.027	0.688 ± 0.048	0.7541 ± 0.0012	0.647 ± 0.023	0.7672 ± 0.0047	0.331 ± 0.02	0.372 ± 0.028	0.601 ± 0.0037
PPVPRLLPVLAP	0.474 ± 0.0057	0.525 ± 0.038	0.503 ± 0.015	0.379 ± 0.025	0.546 ± 0.02	0.348 ± 0.0045	0.385 ± 0.025	0.506 ± 0.0077
PRIVLFLRLHSN	0.21 ± 0.0069	0.555 ± 0.082	0.651 ± 0.042	0.512 ± 0.014	0.6891 ± 0.002	0.107 ± 0.029	0.118 ± 0.02	0.2184 ± 0.0019
PRPETCHAVAVR	0.4806 ± 0.0021	0.568 ± 0.012	0.588 ± 0.037	0.377 ± 0.034	0.575 ± 0.015	0.363 ± 0.0093	0.4 ± 0.029	0.58 ± 0.011

From the supplement of paper PMC10724198
